Measured values from article PMC2972665 (Biochemistry, 2010).

Biological target: the molecule itself
Test: AUC

B1: Wild type SgrAI (enzyme, Streptomyces griseus, UniProt Q9F6L0 1-339, looked up)
chain: MPFTYSIEATRNLATTERCIQDIRNAPVRNRSTQFQLAQQNMLAYTFGEVIPGFASAGINGMNYRDVIGRPVENAVTEGTHFFRDDFRVDSNAKAKVAGDIFEIVSSAVMWNCAARWNSLMVGEGWRSQPRYSRPTLSPSPRRQVAVLNLPRSFDWVSLLVPESQEVIEEFRAGLRKDGLGLPTSTPDLAVVVLPEEFQNDEMWREEIAGLTRPNQILLSGAYQRLQGRVQPGEISLAVAFKRSLRSDRLYQPLYEANVMQLLLEGKLGAPKVEFEVHTLAPEGTNAFVTYEAASLYGLAEGRSAVHRAIRELYVPPTAADLARRFFAFLNERMELVNG
  stoichiometry N: 2 SgrAI chains in the DNA bound dimer
